Experimental data taken from patent US20020146774A1 (LUDWIG INSTITUTE FOR CANCER RESEARCH, published 2002).
Where no end group is shown, it is not given here. [ ]: non-standard residue; d: D form. pS = N[C@@H](COP(=O)(O)O)C(=O)O

Biological target: T1, GST (UniProt P08515 1-218 = GST)
T1 construct: Control for GST-Smad4; also called GST protein
Assay: peptide-Sepharose pull-down, anti-GST immunoblot
Excerpt: To investigate whether phosphorylated Ser465 and Ser467 of Smad2 are directly involved in heteromeric interaction with Smad4, phosphorylated and non-phosphorylated peptides corresponding to the C-terminus of Smad2 were made and tested for their ability to bind GST-Smad4 fusion proteins. Short C-terminal peptide of Smad2 SSMS (SNp; SEQ ID NO: 3) or its phosphorylated counterpart (SPp), as well as long C-terminal-peptide […] (LNp; SEQ ID NO: 4) or its phosphorylated counterpart (LPp), coupled to CNBr-Sepharose (peptide beads), were incubated with GST or GST-Smad4 fusion protein. For competition large excesses (200 μM) of non-phosphorylated short (SNp) or long (LNp) peptides or their phosphorylated counterpart (SPp and LPp, respectively) were used (block). Proteins bound to the beads, were resolved by SDS-PAGE, transferred to nitrocellulose membrane and immunoblotted with anti-GST antibodies. Migration positions of GST and GST-Smad4 are shown by double arrows. Molecular masses of standard proteins are indicated on the left side on gel in which protein-stained GST and GST-Smad4 are shown. […] The phosphorylated long peptide also bound GST-Smad4 more efficiently, than the non-phosphorylated counterpart, however, a considerable binding was observed also to the long non-phosphorylated peptide.

T1 sequence (P08515 whole entry): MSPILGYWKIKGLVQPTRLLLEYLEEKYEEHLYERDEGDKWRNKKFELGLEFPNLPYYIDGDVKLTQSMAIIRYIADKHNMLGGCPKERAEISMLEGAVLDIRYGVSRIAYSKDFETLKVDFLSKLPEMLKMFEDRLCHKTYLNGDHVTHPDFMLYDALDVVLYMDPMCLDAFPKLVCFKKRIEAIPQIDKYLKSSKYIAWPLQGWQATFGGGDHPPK

B1: short C-terminal peptide of Smad2 SSpMSp, doubly phosphorylated (peptide)
peptide: KKKS[pS]M[pS]
notes: The same phosphopeptide was the immunogen of the Smad2 phospho tail antibody; also called SPp
binding result: no binding
